From patent US20250136718A1 (MABWELL THERAPEUTICS, published 2025)

T1: human TMPRSS6 (matriptase-2) expressed on HEK293T cells, huTMPRSS6-(His)6 (UniProt Q8IU80 10-811)
T1 chain: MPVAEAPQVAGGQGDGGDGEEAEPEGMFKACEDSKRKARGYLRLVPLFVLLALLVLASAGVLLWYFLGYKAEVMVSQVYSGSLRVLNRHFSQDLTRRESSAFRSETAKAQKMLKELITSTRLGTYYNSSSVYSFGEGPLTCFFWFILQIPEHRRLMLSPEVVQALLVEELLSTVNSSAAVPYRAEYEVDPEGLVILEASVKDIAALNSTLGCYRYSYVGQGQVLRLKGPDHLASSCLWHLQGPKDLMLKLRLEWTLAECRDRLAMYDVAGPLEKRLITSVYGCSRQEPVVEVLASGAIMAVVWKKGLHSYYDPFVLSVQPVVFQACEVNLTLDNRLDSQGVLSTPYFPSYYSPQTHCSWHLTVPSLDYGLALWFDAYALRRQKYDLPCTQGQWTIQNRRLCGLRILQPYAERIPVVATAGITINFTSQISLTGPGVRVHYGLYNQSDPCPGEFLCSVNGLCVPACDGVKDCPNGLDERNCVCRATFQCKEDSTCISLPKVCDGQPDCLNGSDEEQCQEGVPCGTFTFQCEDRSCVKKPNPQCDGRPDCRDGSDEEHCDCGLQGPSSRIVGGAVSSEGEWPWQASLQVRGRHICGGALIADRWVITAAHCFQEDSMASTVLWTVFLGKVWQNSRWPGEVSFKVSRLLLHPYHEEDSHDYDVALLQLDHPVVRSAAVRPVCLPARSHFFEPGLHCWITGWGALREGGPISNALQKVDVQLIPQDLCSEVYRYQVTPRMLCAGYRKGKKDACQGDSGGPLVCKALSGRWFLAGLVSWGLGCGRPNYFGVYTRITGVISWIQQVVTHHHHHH

T2: cynomolgus monkey TMPRSS6 expressed on HEK293T cells, CynoTMPRSS6-(His)6 (cynomolgus monkey, UniProt Q8IU80 10-811 (human entry))
T2 chain: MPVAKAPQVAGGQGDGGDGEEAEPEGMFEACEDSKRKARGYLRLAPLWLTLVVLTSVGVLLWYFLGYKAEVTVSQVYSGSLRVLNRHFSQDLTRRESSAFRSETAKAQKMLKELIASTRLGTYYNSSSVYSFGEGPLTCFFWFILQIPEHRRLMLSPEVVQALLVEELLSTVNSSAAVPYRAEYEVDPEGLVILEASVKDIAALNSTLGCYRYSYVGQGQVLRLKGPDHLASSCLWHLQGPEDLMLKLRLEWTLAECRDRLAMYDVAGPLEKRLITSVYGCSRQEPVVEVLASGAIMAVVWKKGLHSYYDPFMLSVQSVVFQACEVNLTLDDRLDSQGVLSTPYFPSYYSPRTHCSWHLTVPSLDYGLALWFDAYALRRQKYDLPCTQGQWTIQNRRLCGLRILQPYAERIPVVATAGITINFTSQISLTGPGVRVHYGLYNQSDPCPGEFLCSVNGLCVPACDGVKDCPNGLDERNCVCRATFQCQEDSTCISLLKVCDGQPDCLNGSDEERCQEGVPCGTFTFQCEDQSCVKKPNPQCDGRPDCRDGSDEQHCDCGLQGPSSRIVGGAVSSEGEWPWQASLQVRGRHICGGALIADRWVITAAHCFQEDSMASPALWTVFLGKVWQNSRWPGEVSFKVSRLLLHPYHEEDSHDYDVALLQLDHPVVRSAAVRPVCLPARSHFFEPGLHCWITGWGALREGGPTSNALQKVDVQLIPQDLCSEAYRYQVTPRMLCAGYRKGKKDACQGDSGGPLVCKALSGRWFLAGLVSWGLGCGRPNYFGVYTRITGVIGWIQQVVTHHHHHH

T3: cynomolgus monkey TMPRSS6 expressed on HEK293T cells, CynoTMPRSS6-(His)6
T3 chain: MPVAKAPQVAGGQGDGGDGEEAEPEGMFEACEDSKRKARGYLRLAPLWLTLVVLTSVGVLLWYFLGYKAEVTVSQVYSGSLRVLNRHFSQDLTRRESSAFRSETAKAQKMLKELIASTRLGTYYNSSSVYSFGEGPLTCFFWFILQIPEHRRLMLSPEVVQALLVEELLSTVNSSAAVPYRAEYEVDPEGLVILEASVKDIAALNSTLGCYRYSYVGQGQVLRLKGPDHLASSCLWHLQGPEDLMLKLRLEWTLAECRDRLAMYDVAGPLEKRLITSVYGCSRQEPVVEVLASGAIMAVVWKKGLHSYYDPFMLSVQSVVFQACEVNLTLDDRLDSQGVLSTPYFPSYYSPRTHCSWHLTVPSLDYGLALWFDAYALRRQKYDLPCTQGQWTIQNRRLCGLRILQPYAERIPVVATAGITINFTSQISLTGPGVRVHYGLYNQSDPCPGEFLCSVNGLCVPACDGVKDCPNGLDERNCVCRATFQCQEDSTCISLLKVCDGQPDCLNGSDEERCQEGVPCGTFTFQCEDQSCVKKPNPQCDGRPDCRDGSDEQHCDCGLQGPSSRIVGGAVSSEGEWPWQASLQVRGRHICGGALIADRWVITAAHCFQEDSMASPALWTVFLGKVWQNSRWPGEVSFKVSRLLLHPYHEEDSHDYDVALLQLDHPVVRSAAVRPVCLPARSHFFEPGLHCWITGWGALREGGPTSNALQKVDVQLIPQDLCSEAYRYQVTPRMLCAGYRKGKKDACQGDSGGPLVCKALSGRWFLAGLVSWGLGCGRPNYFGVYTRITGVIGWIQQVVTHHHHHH


How the values were obtained:
[1] = target: T1, human TMPRSS6 (matriptase-2) expressed …; experiment: FACS
[2] = target: T2, cynomolgus monkey TMPRSS6 expressed on …; experiment: summary of Example 4 (FACS, cell surface ELISA)
Experimental: Selected anti-TMPRSS6 antibodies were tested to determine whether any are capable of binding to TMPRSS6 from mouse and/or cynomolgus monkey. HEK293T cells stably expressing human TMPRSS6 (HuTMPRSS6-(His)₆) (generated by LakePharma Inc as described above), HEK293T cells stably expressing mouse TMPRSS6 (MoTMPRSS6-(His)₆) (SEQ ID NO: 98) (generated by LakePharma Inc as described above) and HEK293T cells transiently expressing cynomolgus monkey TMPRSS6 (CynoTMPRSS6-(His)₆) (SEQ ID NO: 99) (generated in house) were collected. HEK293T cells stably expressing human TMPRSS6 were used as a positive control and HEK293T cells were used as a negative control (as described above). Cells were blocked with dPBS+3% BSA before incubation with anti-TMPRSS6 antibodies diluted in dPBS+3% BSA. After incubation, cells were washed with dPBS and followed by another incubation with goat anti-mouse IgG conjugated with AlexaFluor-488 as a 2° antibody (Invitrogen). At last, cells were washed with dPBS to remove unbound antibody, re-suspended with dPBS+1 mM EDTA, and then subjected to FACS analysis using a NOVOCYTE® Flow Cytometer (ACEA Biosciences, Inc., San Diego CA). Bound antibody was determined by excitation at 488 nm and measurement of emission (FITC-A) at 530 nm. Results for these assays are shown in histogram plots in FIGS. 4A-4I.
HEK293T cells stably expressing mouse TMPRSS6 (generated by LakePharma Inc as described above, FIGS. 4J, 4L, 4N, 4P, 4R, 4T) or cynomolgus monkey (generated in house as described above, FIGS. 4K, 4M, 4O, 4Q, 4S, 4U) were fixed with methanol (100%), and washed with dPBS (Dulbecco's phosphate-buffered saline, Corning Cellgro) before incubation with various concentrations of anti-TMPRSS6 antibodies and their humanized variants diluted in BSA medium (DMEM+1% Pen/Strep+10 mM HEPES+1 mg/ml BSA (Sigma-Aldrich)). Purified mouse IgG (FIGS. 4J-4O) or Human IgG1 (FIGS. 4P-4U) was used as a control.

[3] = target: T1, human TMPRSS6 (matriptase-2) expressed …; experiment: cell surface ELISA
[4] = target: T3, cynomolgus monkey TMPRSS6 expressed on …; experiment: cell surface ELISA

Row | EC50 [1] | binding result [2] | EC50 [3] | EC50 [4] | Binder
1 | 0.2 µg/mL | binds | 0.04 µg/mL | 0.06 µg/mL | MWTx-002 anti-TMPRSS6 monoclonal antibody (antibody, mouse IgG2b, kappa, V domains shown, Mouse monoclonal antibody from hybridoma (ATCC PTA-126760)) VH: EVQLQQSGAELVKPGASVKLSCTASGFNIKDYYIHWVKERTEQGLEWFGRIDPEDGESEYAPKFQGKATLTADTSSNTAYLQLSSLTSEDTAVYYCTRGDSMMVTYFDYWGQGTTLTVSS VL: DIVMTQSHKFMSTSVGDRVSITCKASQDVSTAVAWYQQKPGQSPKLLIYWAFTRHTGVPDRFTSTGSGTDYALTISSVQAEDLALYYCQQHYRSPWTFGGGTKLEIKR
2 | 0.2 µg/mL | binds | 0.05 µg/mL | 0.09 µg/mL | MWTx-003 anti-TMPRSS6 monoclonal antibody (antibody, mouse IgG2b, kappa, V domains shown, Mouse monoclonal antibody from hybridoma (ATCC PTA-126761); The recombinant version r4K12B has the same HC and LC; also called r4K12B; recombinant MWTx-003) VH: EVQLQQSGAELVKPGASVKLSCTASGFNIEDYYIHWVKERTEQGLEWIGRIDPEDGETTYAPQFQGKATIIPDTSSNTAYMQLSSLTSEDAAVYYCARSIYLDPMDYWGQGTSVTVSS VL: DIVMTQSHKFMSTSVGDRVSITCKASQDVTTAVAWYQQKPGQSPKILIYWATTRHTGVPDRFTGSISGTTYILTISSVQAEDLALYYCQQHYSTPYTFGGGTKLEIKR
3 | 1 µg/mL | binds | 0.2 µg/mL | 0.1 µg/mL | MWTx-001 anti-TMPRSS6 monoclonal antibody (antibody, mouse IgG2a, kappa, V domains shown, Mouse monoclonal antibody from hybridoma (ATCC PTA-126759)) VH: QVQLQQPGAELAKPGASVKMSCKASGYTFTSYWITWVKQRPGQDLEWIGNIYPGSGSTYYNEKFKSKATLTVDTSSRTAYMQLSSLTSADSAVYYCAPYDSDYAMDYWGQGTSVTVSS VL: DIKMTQSPSSMYASLGERVTITCKASQDINNYLSWFQQKPGKSPKTLIYRANRLVDGVPSRVSGSGSGQDYSLTISSLEYEDVGIYFCLQYDEFPLTFGAGTKLELKR
